US20170342155A1 (Amgen, published 2017)
Where a chain is given by its changes, count along the chain named.

Key:
Test in all cases: flow cytometry on transfected 293T cells, PE secondary antibody, geo mean
[1] = molecular target: T1, human CCR7 variant S295N (20110018205) (human, UniProt P32248 25-378)
T1 sequence: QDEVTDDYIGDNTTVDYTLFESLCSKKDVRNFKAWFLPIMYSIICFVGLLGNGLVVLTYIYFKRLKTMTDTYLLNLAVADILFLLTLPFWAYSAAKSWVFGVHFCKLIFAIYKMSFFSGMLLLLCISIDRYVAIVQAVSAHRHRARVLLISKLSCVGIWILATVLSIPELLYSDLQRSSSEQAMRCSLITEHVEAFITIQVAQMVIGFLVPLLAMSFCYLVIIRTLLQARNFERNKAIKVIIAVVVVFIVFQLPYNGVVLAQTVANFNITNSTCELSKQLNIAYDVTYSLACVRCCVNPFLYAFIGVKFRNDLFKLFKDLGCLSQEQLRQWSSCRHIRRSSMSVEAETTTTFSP

[2] = molecular target: T2, murine CCR7 K201R/N202S/G204S/T207A/L208M construct 20110094673 (mouse, UniProt P47774 25-378)
T2 construct: Murine CCR7 with five human ECL2 residues; also called KNGTL; KNGTL construct
T2 chain: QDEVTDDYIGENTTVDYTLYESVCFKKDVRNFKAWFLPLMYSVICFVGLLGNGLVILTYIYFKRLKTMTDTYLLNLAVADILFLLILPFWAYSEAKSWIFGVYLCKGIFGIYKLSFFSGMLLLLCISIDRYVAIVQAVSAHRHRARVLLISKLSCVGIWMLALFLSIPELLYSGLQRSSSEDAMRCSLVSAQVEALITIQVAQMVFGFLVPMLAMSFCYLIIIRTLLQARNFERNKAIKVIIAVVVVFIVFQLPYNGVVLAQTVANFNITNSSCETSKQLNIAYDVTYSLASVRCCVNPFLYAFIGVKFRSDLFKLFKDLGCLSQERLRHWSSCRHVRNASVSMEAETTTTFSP

[3] = molecular target: T3, human CCR7 variant T297S (20110018203) (human, UniProt P32248 25-378)
T3 sequence: T1 sequence with N271S, T273S

[4] = molecular target: T4, human CCR7 variant R201K (20100171268) (human, UniProt P32248 25-378)
T4 sequence: T1 sequence with R177K, N271S

[5] = molecular target: T5, human CCR7 variant A118E (20100130760) (human, UniProt P32248 25-378)
T5 sequence: T1 sequence with A94E, N271S

[6] = molecular target: T6, human CCR7 variant F44Y (20100128285) (human, UniProt P32248 25-378)
T6 sequence: T1 sequence with F20Y, N271S

Measured: binding result

B1: antibody 6B4.1 (antibody, V domains shown)
VH: QVQLVESGGGVVQPGRSLRLSCAASGFTFSSYGMHWVRQAPGKGLEWVAVIWYDGSKKYYADSVKGRFTISRDNSKNTLYLQMNRLRAEDTAVYYCARDGGIAVFLQDNWFDPWGQGTLVTVSS
VL: SYELTQPPSVSVSPGQRARITCSGDKLGDKYASWYQQKPGQSPLLVIYQDSKRPSGIPERFSGSNSGNTATLTISGTQAMDEADYYCQAWGSSTVIFGGGTKLTVLG
notes: Human antibody from XenoMouse hybridoma; Light = 2 and heavy = 42 is inferred from the order of the listing (light chains first)
binds: all assays above

B2: antibody 6B5.1 (antibody, human IgG2, lambda, V domains shown)
VH: B1 VH with S30R, Q107E
VL: B1 VL with R19S, S51G
notes: Human antibody from XenoMouse hybridoma; Light = 18 and heavy = 50 is inferred from the order of the listing
binds: all assays above
